The text below walks through data of US20100305034A1 (UNIVERSITY OF BRISTOL, published 2010).

The series concerns the molecule itself. The series can be described thus: Western blot of conditioned media from transfected HEK293 cells. Here is the method:
Full length VEGF₁₆₅b or VEGF₁₆₅ (generated by PCR from tissue) was cloned into the expression vector pcDNA₃ using standard methodology, and then transfected into HEK 293 cells and a stable cell line generated using Geneticin selection. Confluent cells were incubated in basal M200 endothelial cell medium for 48 hours, containing neither serum nor Geneticin, and the conditioned media assayed for VEGF concentration using a pan VEGF ELISA(R&D). Control conditioned media (pcDNA3-CM) was collected in the same way from HEK293 cells stably transfected with pcDNA₃. […] VEGF₁₆₅b was the same molecular weight as VEGF₁₆₅, and both isoforms correspond to previously published molecular weights for VEGF₁₆₅ (Ferrara N et al Biophys. Res. Comm. 1989; 161: 851-8). […] This is probably due to the fact that commercially available VEGF₁₆₅ is not glycosylated. There was some VEGF₁₆₅b and VEGF₁₆₅ in the conditioned media that appeared to be de-glycosylated, but this was a small fraction of the total VEGF.
For orientation: Immunoblotting shows a protein as a band on a membrane.

B1: VEGF165b (recombinant, produced by transfected HEK293 cells) (ligand)
chain: APMAEGGGQNHHEVVKFMDVYQRSYCHPIETLVDIFQEYPDEIEYIFKPSCVPLMRCGGCCNDEGLECVPTEESNITMQIMRIKPHQGQHIGEMSFLQHNKCECRPKKDRARQENPCGPCSERRKHLFVQDPQTCKCSCKNTDSRCKARQLELNERTCRSLTRKD
notes: Secreted into conditioned medium of HEK293 cells stably transfected with pcDNA3-VEGF165b; mostly glycosylated (about 23 kDa); also called VEGF165b-CM; new isoform VEGF165b
Turning to B1, the binding result is “binds”.
